According to patent US6066485A, “Growth factor inducible serine/threonine phosphatase fin13” (New York University, priority 1997, dated 2000):

What was measured:
[1] = system: HeLa cells; assay: BrdU incorporation in transiently transfected HeLa cells; type: cell-based, human; settings: summary of Table 1
Description: Bromodeoxyuridine (BrdU) incorporation. The effect of FIN13 expression on BrdU incorporation was determined in HeLa cells growing asynchronously in DMEM/10% calf serum. Cells were plated at 10000 cells/ml on coverslips and after 24 h were transfected with 10 μg of either pRKERK2-HA, CMVβ or pRKFIN13. Twenty four hours after transfection the medium was changed and the cells were incubated with BrdU labelling reagent (10 μl) for a further 12 h according to the suppliers instructions (Boehringer Mannheim). Following labelling, coverslips were rinsed in PBS and cells were fixed in 70% ethanol-50 mM glycine (pH 2.0) overnight at -20° C. Incorporated BrdU was detected with FITC-conjugated anti-BrdU (Boehringer Mannheim) by immunocytochemistry (see below).
Immunocytocliemistry. Fixed cells on coverslips were washed twice in PBS and twice in PBS/0.02% BSA followed by incubation with the primary antibody diluted in PBS/0.02% BSA for 1 hour at 37° C. (anti-FIN13 polyclonal serum at 1:200, anti-HA monoclonal antibody 12CA5 acities at 1:200 or anti-β-galactosidase GAL40 monoclonal antibody at 1:500). After washing, coverslips were incubated in secondary antibody as above (anti-rabbit Texas red at 1:200, anti-mouse Texas red at 1:200)(Molecular Probes). The coverslips were washed again and then incubated in […] (1:500) FITC-conjugated anti-BrdU (Boehringer Mannheim) as above. Where noted, cells were also stained with 1 μg/ml bis-benzimide (Hoechst #33342) in PBS. Coverslips were mounted and examined using a fluorescence microscope.
Cells Transiently Transfected with FIN13 are Blocked in the Cell Cycle. We have utilized a transient transfection approach to examine the effect of FIN13 expression on DNA synthesis and cell cycle progression. […] ERK2 is expressed as a nuclear protein in HeLa cells in the presence of 10% serum (Chen et al., Mol. Cell. Biol. 12:915-927 (1992)) while β-galactosidase is predominantly cytoplasmic. […] BrdU incorporation was detected using FITC-conjugated anti-BrdU antibodies.

[2] = molecular target: T1, his-FIN13 (Mus musculus, UniProt Q61074); assay: Phosphatase assay of bacterially expressed his-FIN13 with 32P-labelled casein; type: biochemical; settings: for effect on his-FIN13 phosphatase activity: 20 μg/ml, 20 mg/ml in FIG. 5 legend
T1 construct: Purified his-tagged full length FIN13 (his-FIN13); made in house; host or cells: E. coli BL21(DE3)
T1 sequence (Q61074 151-542 limits assumed): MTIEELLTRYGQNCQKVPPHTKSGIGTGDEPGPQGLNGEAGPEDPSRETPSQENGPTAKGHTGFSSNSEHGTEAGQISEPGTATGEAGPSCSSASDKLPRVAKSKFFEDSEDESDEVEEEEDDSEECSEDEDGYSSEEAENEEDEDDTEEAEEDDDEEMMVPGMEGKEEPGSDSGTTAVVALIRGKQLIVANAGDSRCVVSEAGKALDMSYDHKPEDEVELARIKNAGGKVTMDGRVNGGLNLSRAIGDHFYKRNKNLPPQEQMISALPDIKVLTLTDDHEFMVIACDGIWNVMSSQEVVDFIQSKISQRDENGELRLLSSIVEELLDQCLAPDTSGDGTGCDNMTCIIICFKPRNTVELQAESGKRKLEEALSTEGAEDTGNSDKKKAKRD
Description: FIG. 5. Phosphatase activity of bacterially expressed FIN13. Purified his-tagged full length FIN13 (his-FIN13) or his-tagged catalytic domain FIN13 (his-FIN13-cat) were examined for their ability to dephosphorylate ^32 P-labelled cascin in vitro as described in the Materials and Methods. Phosphatase assays were performed in the absence of his-FIN13 (No FIN13; open bar) or with his-FIN13 incubated in the presence of 10 mM of the indicated divalent cation (MgCl2, ZnCl2, CaCl2 or MnCl2)(solid bars) or in the presence of the indicated mM concentrations of MnCl2 (half-tone bars). +EDTA: indicates his-FIN13 incubated in the presence of 10 mM EDTA and 10 mM MnCl2. his-FIN13-cat was incubated in the presence of the indicated mM concentrations of MnCl2 (cross-hatched bars). his-FIN13 was also incubated in the presence of 1 μM okadaic acid (OA), 20 mg/ml poly L-lysine (PL-L), 20 mg/ml protamine sulfate (PS). All incubations were performed for 1 h at 30° C.
Preparation of ^32 P-labelled casein. Casein (10 mg)(Sigma) was labelled with ^32 P using 10U of the catalytic subunit of cAMP dependent protein kinase (Sigma) in 50 mM Tris-HCl pH 7.0, 0.1 mM EGTA, 10 mM Mg-acetate, 0.1% β-mercaptoethanol, and 0.5 mCi of ^32 PγATP for 12 h at 30° C. The reaction mixture was then precipitated at 4° C. in 20% TCA. Labelled casein was recovered by centrifugation, the pellet washed 5 times in 100% acetone and resuspended in 50 mM Tris-HCl, 0.1 mM EGTA.
Phosphatase assay. The phosphatase activity of purified FIN13 expressed in bacteria as a fusion protein with N- and C-terminal his-tags was assessed in vitro using ^32 P-labelled casein as a substrate. For preparation of his-FIN13 and his-FIN13-cat from bacteria, the BL21(DE3) strain transformed with pEThis-FIN13 or pEThis-FIN13-cat were induced with 0.2 mM IPTG for 2 h following which the cells were recovered by centrifugation, resuspended in column buffer (50 mM sodium phosphate, pH 8.0, 300 mM NaCl, 1 mM PMSF) and frozen overnight at -70° C. The bacteria were then lysed by sonication at 4° C. and the extract cleared by centrifugation. The supernatant was then adsorbed to Ni-NTA-agarose (Qiagen) at 4° C. for 1 h. The resin was then washed extensively in column buffer without PMSF and his-FIN13 or his-FIN13-cat were eluted using 25 mM Tris-HCl pH 7.2, 100 mM NaCl containing […] imidazole (Sigma). In addition, the phosphatase activity of FIN13 expressed in HeLa cells was also determined in an immune complex using ^32 P-labelled casein as a substrate. For preparation of immune complexes of myc-FIN13, HeLa cells were transfected with […] of pRKmyc-FIN13 or pRK5. Cells were lysed 24 h after transfection in lysis buffer (10 mM Na-phosphate pH 7.4, 100 mM NaCl, 1% TRITON X-100, 10 mM EDTA) also containing a protease/phosphatase inhibitor cocktail (1 mM PMSF, 1 μg/ml pepstatin, 1 μg/ml leupeptin, 1 μg/ml aprotinin, 10 mM Na-orthovanadate, 80 mM NaF, 80 mM β-glycerolphosphate, 10 μM okadaic acid). Cleared lysates (100 μg total protein) were immunoprecipitated with anti-myc monoclonal antibody (9E10) adsorbed to 30 μl protein G sepharose (Zymed) or anti-FIN13 antiserum adsorbed to 30 μl protein A sepharose (Zymed) for 1.5 h at 4° C. The anti-FIN13 polyclonal antiserum (630) was generated against the full length his-FIN13 expressed and purified from bacteria. The IPs were then washed 5 times with lysis buffer, once with 10 mM Tris-HCl pH 7.0, 100 mM NaCl and 5 mM MnCl2, and twice with phosphatase reaction buffer (10 mM Tris-HCl pH 7.0, 0.1 mM EGTA, 10 mM DTT and 10 mM MnCl2) containing 1 μM okadaic acid. Purified his-FIN13, his-FIN13-cat or myc-lPs were then examined for phosphatase activity by incubating the indicated FIN13 preparation in the presence of phosphatase reaction buffer containing ^32 P-labelled casein (1×10^5 cpm; approx. 1 μl) at 30° C. for up to 2 h.

ERK2-HA: control nuclear protein ERK2 expressed in HeLa cells
cells expressing the protein observed to incorporate BrdU [1]: greater than 70%

poly L-lysine
effect on his-FIN13 phosphatase activity [2]: Neither poly L-lysine nor protamine sulfate significantly altered

protamine sulfate
effect on his-FIN13 phosphatase activity [2]: Neither poly L-lysine nor protamine sulfate significantly altered

β-galactosidase: control protein, predominantly cytoplasmic
cells expressing the protein observed to incorporate BrdU [1]: greater than 70%

B1: his-FIN13-cat: catalytic domain of FIN13 (amino acids 195 to 392) with N- and C-terminal poly(6)-histidine tags (protein)
chain: DSRCVVSEAGKALDMSYDHKPEDEVELARIKNAGGKVTMDGRVNGGLNLSRAIGDHFYKRNKNLPPQEQMISALPDIKVLTLTDDHEFMVIACDGIWNVMSSQEVVDFIQSKISQRDENGELRLLSSIVEELLDQCLAPDTSGDGTGCDNMTCIIICFKPRNTVELQAESGKRKLEEALSTEGAEDTGNSDKKKAKRD
phosphatase activity of catalytic domain ([2]; 10 mM MnCl2): poor phosphatase activity | phosphatase activity of catalytic domain ([2]; 400 mM MnCl2): detectable

B2: his-FIN13: purified full length FIN13 expressed in bacteria as fusion protein with N- and C-terminal his-tags (protein)
chain: T1 sequence (Q61074 151-542 limits assumed)
MnCl2 concentration giving maximal phosphatase activity ([2]; 32P-labelled casein substrate): 10 mM | phosphatase activity with other divalent cations ([2]; in the presence of MgCl2, ZnCl2 or CaCl2 (10 mM)): No activity | dephosphorylation of 32P-labelled casein ([2]; in the presence of Mn2+ ions, 30° C.): able to dephosphorylate

B3: FIN13: novel FGF-inducible type 2C serine/threonine phosphatase (protein)
chain: T1 sequence (Q61074 151-542 limits assumed)
cells expressing the protein observed to incorporate BrdU [1]: 10-17%
